T1: hFcgRIIaH (human, UniProt P12318 34-217)
T1 construct: extracellular domain; also called human FcγRIIa type H (H131)
T1 sequence (looked up): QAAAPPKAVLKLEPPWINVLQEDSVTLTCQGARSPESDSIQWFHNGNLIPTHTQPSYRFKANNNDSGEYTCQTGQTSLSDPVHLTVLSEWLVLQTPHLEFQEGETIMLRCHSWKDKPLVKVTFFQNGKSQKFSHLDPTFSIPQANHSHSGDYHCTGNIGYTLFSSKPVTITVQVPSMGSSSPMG

T2: hFcgRIIb (human, UniProt P31994 43-217)
T2 construct: extracellular domain; also called human FcγRIIb
T2 sequence (looked up): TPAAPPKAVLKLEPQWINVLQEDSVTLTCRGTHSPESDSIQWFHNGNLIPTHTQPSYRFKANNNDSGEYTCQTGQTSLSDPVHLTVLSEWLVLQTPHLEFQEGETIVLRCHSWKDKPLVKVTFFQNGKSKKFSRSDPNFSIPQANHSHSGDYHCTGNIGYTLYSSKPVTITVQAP

T3: hFcgRIIaR (human, UniProt P12318 34-217)
T3 construct: extracellular domain; also called human FcγRIIa type R (R131)
T3 sequence (looked up): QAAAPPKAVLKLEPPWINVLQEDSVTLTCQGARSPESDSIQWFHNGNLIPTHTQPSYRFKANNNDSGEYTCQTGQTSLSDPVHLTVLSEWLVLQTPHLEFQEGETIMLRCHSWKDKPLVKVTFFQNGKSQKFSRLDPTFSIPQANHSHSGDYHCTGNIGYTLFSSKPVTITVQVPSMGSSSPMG


Experiments:
human FcRn = human FcRn (human, UniProt P55899 24-290; P61769 21-119, limits assumed); experiment: SPR 25C pH 6.0, steady state;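 also: antibody captured on chip via anti-human Fab-lambda ligand, human FcRn injected as analyte in 50 mM phosphate buffer with 150 mM NaCl and P20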
human FcRn, sequence (P55899 24-290 limits assumed, chain 1 of 2): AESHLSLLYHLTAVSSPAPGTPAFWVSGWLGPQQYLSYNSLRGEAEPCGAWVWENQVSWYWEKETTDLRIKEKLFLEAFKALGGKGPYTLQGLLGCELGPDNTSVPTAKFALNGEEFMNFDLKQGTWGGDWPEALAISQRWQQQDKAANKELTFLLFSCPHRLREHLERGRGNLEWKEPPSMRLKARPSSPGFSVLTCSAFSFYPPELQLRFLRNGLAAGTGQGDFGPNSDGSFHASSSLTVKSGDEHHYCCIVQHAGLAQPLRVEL
human FcRn, sequence (P61769 21-119 limits assumed, chain 2 of 2): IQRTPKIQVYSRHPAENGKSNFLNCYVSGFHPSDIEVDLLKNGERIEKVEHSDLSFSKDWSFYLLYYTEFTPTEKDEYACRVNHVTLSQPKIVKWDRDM
Protocol: Biacore T200 (GE Healthcare) was used to assess the binding activity to human FcRn. Measurement was performed at 25° C. using 50 mM phosphate, 150 mM NaCl, 0.05 w/v %-P20, pH 6.0 as buffer. […] About 400 RU of antibody was captured using a sensor chip immobilized with CaptureSelect™ Human Fab-lambda Kinetics Biotin Conjugate (Thermo Fisher Scientific) as a molecule for ligand capturing, followed by the binding of human FcRn diluted in measuring buffer. The activity of the respective antibodies to bind FcRn was assessed by calculating KD (mol/L) by the steady-state model using Biacore T200 Evaluation Software 2.0.

hFcgRIIIaF [1] = target: T4, hFcgRIIIaF (human, UniProt P08637 17-208); experiment: SPR 25C; relative to A375-G1T3/B167-Lamlib;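 also: SPR with antibody captured on an anti-human Fab-lambda chip, human FcγR analyte at 8 nM for FcγRIa or 1000 nM for the others, pH 7.4, FcγR RU per captured antibody unit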
T4 construct: extracellular domain; also called human FcγRIIIa allotype F158
T4 sequence (P08637 17-208): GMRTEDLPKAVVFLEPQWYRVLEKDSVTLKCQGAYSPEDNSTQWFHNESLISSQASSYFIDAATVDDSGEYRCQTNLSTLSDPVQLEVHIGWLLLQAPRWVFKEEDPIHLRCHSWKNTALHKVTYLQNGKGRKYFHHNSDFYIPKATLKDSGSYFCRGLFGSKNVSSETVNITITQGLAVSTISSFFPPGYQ

hFcgRIIaH [2] = target: T1, hFcgRIIaH; experiment: SPR 25C; relative to A375-G1T3/B167-Lamlib;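 also: SPR with antibody captured on an anti-human Fab-lambda chip, human FcγR analyte at 8 nM for FcγRIa or 1000 nM for the others, pH 7.4, FcγR RU per captured antibody unit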
hFcgRIIb [3] = target: T2, hFcgRIIb; experiment: SPR 25C; relative to A375-G1T3/B167-Lamlib;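 also: SPR with antibody captured on an anti-human Fab-lambda chip, human FcγR analyte at 8 nM for FcγRIa or 1000 nM for the others, pH 7.4, FcγR RU per captured antibody unit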
hFcgRIa [4] = target: T5, hFcgRIa (human, UniProt P12314 16-292); experiment: SPR 25C; relative to A375-G1T3/B167-Lamlib;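 also: SPR with antibody captured on an anti-human Fab-lambda chip, human FcγR analyte at 8 nM for FcγRIa or 1000 nM for the others, pH 7.4, FcγR RU per captured antibody unit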
T5 construct: extracellular domain; also called human FcγRIa; FcγRI
T5 sequence (P12314 16-292): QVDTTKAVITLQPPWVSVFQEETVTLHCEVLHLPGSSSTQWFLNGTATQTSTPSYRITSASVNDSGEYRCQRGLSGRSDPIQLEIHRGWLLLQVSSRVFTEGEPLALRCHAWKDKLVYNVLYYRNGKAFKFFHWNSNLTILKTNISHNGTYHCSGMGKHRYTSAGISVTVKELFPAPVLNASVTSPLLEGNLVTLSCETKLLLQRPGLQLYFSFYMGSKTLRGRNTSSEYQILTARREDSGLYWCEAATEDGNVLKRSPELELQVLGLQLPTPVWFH

hFcgRIIIaV [5] = target: T6, hFcgRIIIaV (human, UniProt P08637 17-208); experiment: SPR 25C; relative to A375-G1T3/B167-Lamlib
T6 construct: extracellular domain; also called human FcγRIIIa allotype V158
T6 sequence (P08637 17-208 F176V): as the sequence (P08637 17-208) above, with F160V counted along it

hFcgRIIaR [6] = target: T3, hFcgRIIaR; experiment: SPR 25C; relative to A375-G1T3/B167-Lamlib
hFcgRIIIaF [7] = target: T4, hFcgRIIIaF; experiment: SPR 25C
hFcgRIIaH [8] = target: T1, hFcgRIIaH; experiment: SPR 25C
hFcgRIIb [9] = target: T2, hFcgRIIb; experiment: SPR 25C
hFcgRIa [10] = target: T5, hFcgRIa; experiment: SPR 25C
hFcgRIIIaV [11] = target: T6, hFcgRIIIaV; experiment: SPR 25C
hFcgRIIaR [12] = target: T3, hFcgRIIaR; experiment: SPR 25C
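For binding per 1RU of antibody in this document: biacore SPR with antibody captured on an anti-human Fab lambda chip, human FcγR injected at 1000 nM (FcγRIa at 8 nM) in pH 7.4 phosphate buffer.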

Binder | Kd (human FcRn) [nM] | relative binding amount (hFcgRIIIaF [1]) | relative binding amount (hFcgRIIaH [2]) | relative binding amount (hFcgRIIb [3]) | relative binding amount (hFcgRIa [4]) | relative binding amount (hFcgRIIIaV [5]) | relative binding amount (hFcgRIIaR [6]) | binding per 1RU of antibody (hFcgRIIIaF [7]) [RU] | binding per 1RU of antibody (hFcgRIIaH [8]) [RU] | binding per 1RU of antibody (hFcgRIIb [9]) [RU] | binding per 1RU of antibody (hFcgRIa [10]) [RU] | binding per 1RU of antibody (hFcgRIIIaV [11]) [RU] | binding per 1RU of antibody (hFcgRIIaR [12]) [RU]
A375-SCF043aPh/B167-Lamlib (antibody, human IgG1, lambda) heavy: EVQLVESGGGLVKPGGSLRLSCAASGFTFSTFTMNWVRQAPGKGLEWVSSISSKSTYIEYADSFKVRFTISRDNAKNSLYLQMNSLRAEDTAVYYCARYGAKNFLNWVFDYWGQGTLVTVSSASTKGPSVFPLAPSSKSTSGGTAALGCLVKDYFPEPVTVSWNSGALTSGVHTFPAVLQSSGLYSLSSVVTVPSSSLGTQTYICNVNHKPSNTKVDKRVEPKSCDKTHTCPPCPAPELWNGPSVFLFPPKPKDTLMISRTPEVTCVVVDVSDEDPEVKFNWYVDGVEVHNAKTKPREEQYNSTYRVVSVLTVLHQDWLNGKEYKCKVSNKALPKPIEKTISKAKGQRREPQVYTLPPSREEMTKNQVSLTCLVKGFYPSDIAVEWESNGQPENNYKTTPPVLDSDGSFFLYSKLTVKKSRWQQGNVFSCSVMHEALHNHYTQKSLSLSP light: QSALTQPPSASGSPGQTVTISCTGTRYDVGYYEYVSWYQQHPGKAPKLMIYETSKRLSGVPDRFSGSKSGNTASLTVSGLQAEDEADYYCSSYRYEHQVSFGGGTKLTVLGQPKAAPSVTLFPPSSEELQANKATLVCLISDFYPGAVTVAWKADSSPVKAGVETTTPSKQSNNKYAASSYLSLTPEQWKSHRSYSCQVTHEGSTVEKTVAPTECS | 1210 | 0 | 0.62 | 3.1 | 0.01 | 0 | 0.75 | 0.0001 | 0.0349 | 0.0339 | 0.0011 | 0.0001 | 0.0349
A375-SCF056a/B167-Lamlib (antibody, human IgG1, lambda, copies: 2 + 2) heavy: EVQLVESGGGLVKPGGSLRLSCAASGFTFSTFTMNWVRQAPGKGLEWVSSISSKSTYIEYADSFKVRFTISRDNAKNSLYLQMNSLRAEDTAVYYCARYGAKNFLNWVFDYWGQGTLVTVSSASTKGPSVFPLAPSSKSTSGGTAALGCLVKDYFPEPVTVSWNSGALTSGVHTFPAVLQSSGLYSLSSVVTVPSSSLGTQTYICNVNHKPSNTKVDKRVEPKSCDKTHTCPPCPAPELLNGPSVFLFPPKPKDTLMISRTPEVTCVVVDVSDEDPEVKFNWYVDGVEVHNAKTKPREEQYNSTYRVVSVLTVLHRDWLNGKEYKCKVSNKALPKPIEKTISKAKGQPREPQVYTLPPSREEMTKNQVSLTCLVKGFYPSDIAVEWESNGQPENNYKTTPPVLDSDGSFFLYSKLTVDKSRWQQGNVFSCSVMHEALHNHYTQKSLSLSP light: QSALTQPPSASGSPGQTVTISCTGTRYDVGYYEYVSWYQQHPGKAPKLMIYETSKRLSGVPDRFSGSKSGNTASLTVSGLQAEDEADYYCSSYRYEHQVSFGGGTKLTVLGQPKAAPSVTLFPPSSEELQANKATLVCLISDFYPGAVTVAWKADSSPVKAGVETTTPSKQSNNKYAASSYLSLTPEQWKSHRSYSCQVTHEGSTVEKTVAPTECS | 956 | 0.05 | 0.93 | 3.64 | 0.49 | 0.03 | 0.71 | 0.0011 | 0.0529 | 0.0399 | 0.0395 | 0.0023 | 0.0331
A375-SCF056aPh/B167-Lamlib (antibody, human IgG1, lambda, copies: 2 + 2) heavy: EVQLVESGGGLVKPGGSLRLSCAASGFTFSTFTMNWVRQAPGKGLEWVSSISSKSTYIEYADSFKVRFTISRDNAKNSLYLQMNSLRAEDTAVYYCARYGAKNFLNWVFDYWGQGTLVTVSSASTKGPSVFPLAPSSKSTSGGTAALGCLVKDYFPEPVTVSWNSGALTSGVHTFPAVLQSSGLYSLSSVVTVPSSSLGTQTYICNVNHKPSNTKVDKRVEPKSCDKTHTCPPCPAPELWNGPSVFLFPPKPKDTLMISRTPEVTCVVVDVSDEDPEVKFNWYVDGVEVHNAKTKPREEQYNSTYRVVSVLTVLHRDWLNGKEYKCKVSNKALPKPIEKTISKAKGQPREPQVYTLPPSREEMTKNQVSLTCLVKGFYPSDIAVEWESNGQPENNYKTTPPVLDSDGSFFLYSKLTVDKSRWQQGNVFSCSVMHEALHNHYTQKSLSLSP light: QSALTQPPSASGSPGQTVTISCTGTRYDVGYYEYVSWYQQHPGKAPKLMIYETSKRLSGVPDRFSGSKSGNTASLTVSGLQAEDEADYYCSSYRYEHQVSFGGGTKLTVLGQPKAAPSVTLFPPSSEELQANKATLVCLISDFYPGAVTVAWKADSSPVKAGVETTTPSKQSNNKYAASSYLSLTPEQWKSHRSYSCQVTHEGSTVEKTVAPTECS | 1000 | 0.05 | 0.55 | 2.67 | 0.02 | 0.01 | 0.64 | 0.001 | 0.0314 | 0.0292 | 0.0019 | 0.001 | 0.0299
A375-SCF057a/B167-Lamlib (antibody, human IgG1, lambda) heavy: EVQLVESGGGLVKPGGSLRLSCAASGFTFSTFTMNWVRQAPGKGLEWVSSISSKSTYIEYADSFKVRFTISRDNAKNSLYLQMNSLRAEDTAVYYCARYGAKNFLNWVFDYWGQGTLVTVSSASTKGPSVFPLAPSSKSTSGGTAALGCLVKDYFPEPVTVSWNSGALTSGVHTFPAVLQSSGLYSLSSVVTVPSSSLGTQTYICNVNHKPSNTKVDKRVEPKSCDKTHTCPPCPAPELLNGPSVFLFPPKPKDTLMISRTPEVTCVVVDVSDEDPEVKFNWYVDGVEVHNAKTKPREEQYNSTYRVVSVLTVLHRDWLNGKEYKCKVSNKALPKPIEKTISKAKGQRREPQVYTLPPSREEMTKNQVSLTCLVKGFYPSDIAVEWESNGQPENNYKTTPPVLDSDGSFFLYSKLTVDKSRWQQGNVFSCSVMHEALHNHYTQKSLSLSP light: QSALTQPPSASGSPGQTVTISCTGTRYDVGYYEYVSWYQQHPGKAPKLMIYETSKRLSGVPDRFSGSKSGNTASLTVSGLQAEDEADYYCSSYRYEHQVSFGGGTKLTVLGQPKAAPSVTLFPPSSEELQANKATLVCLISDFYPGAVTVAWKADSSPVKAGVETTTPSKQSNNKYAASSYLSLTPEQWKSHRSYSCQVTHEGSTVEKTVAPTECS | 928 | 0.06 | 0.93 | 3.76 | 0.5 | 0.04 | 0.79 | 0.0013 | 0.0525 | 0.0412 | 0.0405 | 0.0025 | 0.0367
A375-SCF057aPh/B167-Lamlib (antibody, human IgG1, lambda) heavy: EVQLVESGGGLVKPGGSLRLSCAASGFTFSTFTMNWVRQAPGKGLEWVSSISSKSTYIEYADSFKVRFTISRDNAKNSLYLQMNSLRAEDTAVYYCARYGAKNFLNWVFDYWGQGTLVTVSSASTKGPSVFPLAPSSKSTSGGTAALGCLVKDYFPEPVTVSWNSGALTSGVHTFPAVLQSSGLYSLSSVVTVPSSSLGTQTYICNVNHKPSNTKVDKRVEPKSCDKTHTCPPCPAPELWNGPSVFLFPPKPKDTLMISRTPEVTCVVVDVSDEDPEVKFNWYVDGVEVHNAKTKPREEQYNSTYRVVSVLTVLHRDWLNGKEYKCKVSNKALPKPIEKTISKAKGQRREPQVYTLPPSREEMTKNQVSLTCLVKGFYPSDIAVEWESNGQPENNYKTTPPVLDSDGSFFLYSKLTVDKSRWQQGNVFSCSVMHEALHNHYTQKSLSLSP light: QSALTQPPSASGSPGQTVTISCTGTRYDVGYYEYVSWYQQHPGKAPKLMIYETSKRLSGVPDRFSGSKSGNTASLTVSGLQAEDEADYYCSSYRYEHQVSFGGGTKLTVLGQPKAAPSVTLFPPSSEELQANKATLVCLISDFYPGAVTVAWKADSSPVKAGVETTTPSKQSNNKYAASSYLSLTPEQWKSHRSYSCQVTHEGSTVEKTVAPTECS | 909 | -0.02 | 0.64 | 3.15 | 0.03 | 0.01 | 0.79 | -0.0003 | 0.0365 | 0.0345 | 0.0021 | 0.0005 | 0.0364
